{
  "source": "paper PMC3901395",
  "about": "“Multivalent interactions of the SUMO-interaction motifs in RING finger protein 4 determine the specificity for chains of the SUMO” (Biochemical Journal, 2013)",
  "test_system": "(SUMO2)4–GFP–HA2",
  "experiment": "Pulse–chase analysis of (SUMO2)4–GFP–HA2 turnover in yeast",
  "type": "cell-based, S. cerevisiae",
  "settings": "2 min pulse labelling with [35S]methionine, anti-HA immunoprecipitation, phosphorimaging",
  "excerpt": "To correlate the strength of the interaction of RNF4 and its SIM mutants with poly-SUMOs to the activity of RNF4 in living cells, we made use of our previous findings that RNF4 is functional in yeast and disrupts PML-NBs in mammalian cells. We therefore co-expressed combinations of full-length wt RNF4 or its SIM mutants with poly-SUMO chains that retained the native N-terminus on the first SUMO moiety and were C-terminally tagged with GFP–HA in S. cerevisiae. As shown in Figures 3(A)–3(C), the poly-SUMO–GFP–HA reporter constructs were efficiently targeted for degradation. Compared with the control transformants not expressing RNF4, the levels of di-SUMO2 were reduced to approximately 55%, and this effect was enhanced if the chain was composed of three or four SUMOs (45% and 43% of control levels respectively). […]\nConcentrated di-SUMO2-/Delta1N11 (10 mg/ml) in crystallization […] buffer was used for crystallization experiments by hanging-drop […] vapour diffusion. Crystals grew in a solution of 0.1 M Tris/HCl, […] pH 8.0, 28 % PEG 350 MME (Qiagen) and 0.05 % dioxane within […] 2–4 days at room temperature (21 ◦ C). […]",
  "data": [
    {"molecule": "RNF4 FL: full-length human RNF4 (RING finger protein 4); FLAG-tagged in yeast, HA-tagged in HeLa cells (protein, left off: GST, end not stated, cleaved, full-length human RNF4 (RING finger protein 4); FLAG-tagged in yeast, HA-tagged in HeLa cells) MSTRKRRGGAINSRQAQKRTREATSTPEISLEAEPIELVETAGDEIVDLTCESLEPVVVDLTHNDSVVIVDERRRPRRNARRLPQDHADSCVVSSDDEELSRDRDVYVTTHTPRNARDEGATGLRPSGTVSCPICMDGYSEIVQNGRLIVSTECGHVFCSQCLRDSLKNANTCPTCRKKINHKRYHPIYI", "values": [
      {"measurement": "turnover of linear tetra-SUMO2 reporter, pulse–chase", "value": "degraded upon coexpression of RNF4"}
    ]}
  ]
}
